From publication PMC11910139

Target: ENG-HA (endoglin, HA-tagged, ectopically expressed) (UniProt P17813)
Test: flow cytometry on cells; cells (HEK293T with or without ENG overexpression, DPSCs with or without ENG knockdown or anti-ENG pretreatment, HUVECs) incubated with His-tagged DSP (0.5 μg/ml) or BSA at 37 °C for 1 h; detected with anti-His-tag mAb-Alexa Fluor 488 and PE anti-human ENG antibody

Chain of UniProt P17813 (P17813 26-658): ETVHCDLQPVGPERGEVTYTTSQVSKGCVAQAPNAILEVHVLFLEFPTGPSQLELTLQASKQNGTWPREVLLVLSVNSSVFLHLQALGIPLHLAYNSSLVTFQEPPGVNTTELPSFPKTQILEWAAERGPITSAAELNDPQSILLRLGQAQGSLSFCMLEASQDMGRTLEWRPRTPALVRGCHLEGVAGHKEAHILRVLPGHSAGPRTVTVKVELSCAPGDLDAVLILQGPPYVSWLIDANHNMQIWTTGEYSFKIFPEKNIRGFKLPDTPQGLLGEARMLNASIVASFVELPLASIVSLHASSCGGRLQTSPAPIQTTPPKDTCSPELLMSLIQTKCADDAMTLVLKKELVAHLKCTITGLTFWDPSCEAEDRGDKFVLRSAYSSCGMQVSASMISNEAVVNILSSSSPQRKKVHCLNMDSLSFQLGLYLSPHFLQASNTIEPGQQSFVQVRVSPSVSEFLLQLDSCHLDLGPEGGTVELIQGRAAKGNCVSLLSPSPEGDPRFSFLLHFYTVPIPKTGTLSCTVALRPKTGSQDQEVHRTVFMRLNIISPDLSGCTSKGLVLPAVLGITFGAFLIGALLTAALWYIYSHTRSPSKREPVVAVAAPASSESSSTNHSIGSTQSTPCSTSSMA

fold increase of the DSP-His signal on HEK293T cells with ectopic ENG against cells without: 7.5 fold
Substance: recombinant DSP-His protein (domain or fragment)
